Measurements: the DeepSol protein solubility set

Assay: soluble on expression in E. coli; label from the status in PepcDB or PDB records

Soluble on expression in E. coli, not soluble:
MGSDKIHHHHHHMALMFPRLARNFVKNGYFPTDEPTLERALNALMPSDGSMCILDPCAGEGVAIAEAAHALGREQVKAFAVEFDAERARHARGLVDHCLHADLMDAMISKQSFGLLWLNPPYGDLSKDVNGNIGYQGQGRARLEKLFYQRSLSLLQYGGVLVFIVPGYVLDAELVGWLTRHYTDLRIYRAVETQFKQVVIFGRRVRQREQAPDGVKAVRNLLLQVGLGEVEAEELPSDWPFLPYIVPASPAEPEHFFRVTMEPEQFADEVGRLQGLWPSLDTHLGAAQQSLRPPARALSHWHLALALAAGAISGVVRSKTGRVLVVKGDTHKDKTLQREFTEREDGSIAETRILTDKFVPVIRAWDMTPSSATRGEVLTIR, MGSDKIHHHHHHMALPKKLKALNLFNNGESYLGQVVEVKLPTLSRKMEEYRGGGMNGPVDIDFGQEKIELEWKCGGMMRSVLNQYGATTHNAVQLRFAGSYQRDDSGAVDAVEFVVRGRHKEIDPGTGKSGDDTEFSVKTSASYYKLMINGSTVIEIDLMNMIEIVNGVDLLAPHRRAIGA, MGSDKIHHHHHHMALSLRACILLLKEHHLLKSAAIQNTEDVDMTGIAYDSRKVSGPTLFFCKGDKFRPIYLSMAKDNGARTYVAEKPYVEGNGLNALIVRNITKAMAILSAAFFDYPQDDLFVIAYTGTKGKTTASYFTEAILNEARPRHIALFSTIDTVVGPEPDQRFKSNLTTPESLDLFRDMREAVENGMTHLVMEVSSQAYLRNRVFGLTYDVGFFLNITPDHIGPNEHPTFANYLHNKLQLLVNARKVVINAETEHFDQVYAAATTTTYPESIYLFASAGFRPKRDDIDIDFRFDSQEADVAESRFTLVPVTEKAAALNIGGHYSLALIGDFNESNATAAIIGAGLAGVDASAAVPGIAKVKIPGRMEHTKVAGHGAVYVDYAHNYASMKALLSFLKHAYKDPRLLVVVGSPGDKGVSRRPGFAKVLTEFATEAFLTTDDPGYEDPANIIEEIDSKIDHSKVKVHKVLDRKKAIAEAISDSGPNDIVVVAGKGADPYQKVRGVNTPWPTDMAVVKQVAKSLQEG, MGSDKIHHHHHHMALVKLQPGDITSDDPIPFPIYSADGKLLLQEGQSVTTSSLLDRLYDLGYRKSTEKVRSGPFNPVSHAPQVNTELLISSAHAHEKALPKPEAISGRSMNVLPTLKHRVEFFRLTPAGGSEAIHVDLVGVVHEKTIIVRSTGPDESVVLDPEHSYQAKLFTGSHLSTFSTRLTPDGVGPFGCYYLEYPDNLIHATVRKHRRVTTSFPAKLQSGEYQRASVDVTVSNISLIGAGVSSSVDFLTVGQSARLSMNLSVAQRVRPVEVYVEVRNRREKDGGFFYGLEFVRVSDEVRLEIKDFVLDSLATL, MGSDKIHHHHHHMANYPGIDTELLRTFVAIADHGGFTRAGEVVNRTQSAVSMQMKRLEEDVVQRQLFQREGRTLNLTAEGQVLLGYARRILKLHSEVFNTLREPHMVGVVKIGSPDDYVMRFLPGILSQFAQAYPLVQVEVHCEPSDLLLQRQDLDLTIVTRKPGTEIGTLLRHERLVWMEAIGFAPHEQKPMPLAMFNTHCFCRDWACNALDSVEREYRIAYTSSSMAAITAVVSAGLAVTAQFQSLATPELRILGDAEHLPHLPTASIVLLRNPKTPSPITECMADYIIDGFKP, MGSDKIHHHHHHMAQIKPISGAEDRVLLAEALPLVSPFTLNVFPTNACNFKCSYCAQSLGAEALAATYGMDRGFMSLETMELIVEQSKAFAPYKLLSFMGHGEPLLNRDLPKMISLAARAGIAQRIEIITNASMLTHEYADELIDSGLTNLRVSLQGLDMESYRKICGVALDFDRFMERLVYFYTHKKKDMGLFVKIMDVSLPIGGAKEFYKLFNNICDRMYVENVQPVYHAVDVHSSNGSDLTRYDRYGNAHPPRTVCPLAFFSLAVWPNGDVQPCDAIYKPCVLGNVHNTNLREMWDSELLKQFRIRHLRGEKEIITGCSNCCAPDDVSHPLDALDDRKDEILCRLFG, MGSDKIHHHHHHMARKPIDRPVHIPPLQALRALEAAARHRSFSRAAEELALTHSAISHHMRALEDKLGTKLFQRTGSQMAPTSAGARLAEQIRAALDDIESAVREASSSTTTPVVRLQVSVMADLANAWLIRRLPSLHAQVPSLDLHLRLHAEITPPDPYSVDVGIWHQRIDLPGFECHNLIEDHVIAVASPALLARYPGFTPADVPRMPMLRFALRPWRDWLEAAGLPDAEPERGPIFQDAGLMLQSAVAGLGVATARAQLAHDYLESGQLVQVGSTRIPSSLHYWVTWREGNPREKAIQQFHAWLQEQVRRETPTAEPTTTDDAMK, MGSDKIHHHHHHMARKPRIHYPGALYHVILRGNARQDIFHDPEDRYRFYLFLQEGAERFGHRILAFCLMTNHVHLAVQVGEVPLSRFMQNITFRYTRWQNWRMGKTGHLFQGRYKSFLVDGDAYLQELVAYIHLNPVRAGMTTKLGSYTWSSHRAYLGKEIIPWLNTETVLATYSSDTSTARKQYATFISDRVKEGHREEFHGKGSSDSRVIGDDHFVEAILERADRLPLRRPGLDMVVEVIKRLYRLDEEELASPGQKRWAAEARGVAAWAVQEFSSATLTDLAKRFGRDVSSMSAAVRRLEQRRKIDQGIAERLERVGRELEGAIFQA, MGSDKIHHHHHHMASIALNNLTYTYPQASTPILDRVNLTLPRQSFILLTGPSGTGKSTLLKLIAGLLPLTPDDGTITFDGQALTASTANQRAQHVAMMFQNPNQQFAMDTVENELIFALENLQVPRDQIPARLLSALDFVGIRNLQSRLLNHLSGGEKQKVALAIIVAMDSDVILLDEPFASVDPTARAVLLDRLVELRNQHGKTIILADHDLSGYEQLVDQVVQIKDQHLQLIDRTTWSELFSAFTEQPQRSWSAPQRVERPCFQLDHVTLQAGDRQLLVPTTRQLLAQHNTLITGPNGSGKSTLFEALVRLHPYTGEIRYEGTPIDKLKRKRYARHVALLFQDAETQFLNITVAEELAQSKRYAYGDYFTADRIQTALVQLNLSGRDEQVIYTLSEGQKKKLQILLMLIMQSPVLLMDEPLKGLDLHSINALVALLQTTQAATKQTLIIISHQLTGLMPLIDYQLHFENHHLDWVVRS, MGSDKIHHHHHHMASKEEQYAAFYQFLETLDCYLTTTNALENEVAQFKENPHREIAGFMLASSETIDVPKGFIRMLYCLEQDGYAYLDQQRCSFSAGQVMIVNEATSVSYQGQGMSMIIFYFKKHYFLDTLLNQLAEEPVMYRFFTEIASSEFENIPRYFVFASQPNSDVHVYSLLLLKQIVKMAYFNNKVTKAAFVLLVVELGQLPREALKMQDNYLSNHQRVEVILAYIEQQIAHVTLAEVAAKFHFHPNYLSNFLKEKTNKTFTEIVLAYRIQLAKNYLKQTDLSIQTIVERIGYQDKAFFYKRFKEEMGMTPKQYRQKEGMADVRRSL, MGSDKIHHHHHHMASYHLNAKMAQDIVSRTMQIIDSNINVMDARGKIIGSGDQERLGELHEGALLALSQGRVVDIDDAVARHLHGVRPGINLPLRIDGEIVGVIGLTGNPSQLRQYGELVCMTAEMMLEQARLLHMLAQDSRLREELVLNLVRTDDLSPALMEWAQRLGIDMNKPRVAAVIEVDSGQLGVDSAMAELQQLQTLLTTPERDNLIAIVSLTEMVVLKPALNSHGRWDAEEHRRRVDTLMSRMAESSRLRVRLALGNYFAGPGSIARSYRTARTTMSVGKQRMPAQRCYYYQDLMLPVLLDSLRGGWQANELVRPLSKLKAMDGNGLLRRTLGAWFRNNVQPGATAKALFIHRNTLEYRLNRISELTGLDLGNFDDRLLLYVALQLDEEE, MGSDKIHHHHHHMATIKDIAARLGVSISTVSKGLNGASDISEELRQTVLDTAVEMGYSTKRSRKVENRKLALFIENMNYESIDEFGYDVVLGFKQNAFKHKWDVDIIPVTPQLQAEEKYDTYILKNGYCGAFLVGFALHDEWMQQLKNTTMPTVLFDNYIENNPNVAYVGTDSYEGIDMAVKHLHNLGHKKIAFINGSLFSLVSDQRQEAFENSMRDAGLEIYPELMGHGYYIPETAQYYVSNFIAAGATAILCGSDTIAKGVISECQLHGFNVPNDISVVGFDDVKFAAALTPPLTTIRQERNDLGRCAYIILNSLIHHIPISRTQLRPMLIERESTARVSTAHAAEE, MGSDKIHHHHHHMAVITISREMGTGAYQIAREVAKRLKHTLVDGNKIAELAPRYGLDKELLKRVDEKPPVYITAEDRMHAAHLNTIEIIILDCVKQGNVILYGRGAQDLLSDVENILRIRFIAPFEHRVENFSEREWIDPDLARELIRKSDHQRGGFIHFYFNRDWNDSLGYDLTFNTERMSQSAIIESIIAAAKDSRLKEGEERLKQVIDETILAKKVETAFLKSGDIEYIHFRISVSGKVVSFSGHVHSEAEKREAIRLATAVEGVERVEGDLQVLNYKSHKG, MGSDKIHHHHHHMAVQFELYKTPMPKEKKNKTRYHARPVSFETVNTEKLAYRIHDRSTLRVSDIISTLEELKNEVAQCLLEGKKVHVDGLGFFQVTLSCEEEIRNPKDKRVHRVKLKAIKFKADKELKGELCHMKFQRSKIRPHSANLSEVEIDMKLTEYFAENQIITRKDFQYLCGMTQITAYRHIKRLMAEKKLQNKGTIYQPIYTPVPGNYRVSVDLKYKEQ, MGSDKIHHHHHHMCRWLAYTGNPIHLETVLFRAKHSLIDQSLHSELGATTTNGDGFGIGWYGDPDELPFRYRSVHPAWNDRNLREAARAIRSRMFVAHIRAATDTPVQETNCHPFRHGRWLFAHNGLIRDFHKLRRDLTMKVDPALFPTLEGSTDSELMFRLALTYGLEQTPLPALERMVGMVEETAARYRVDEPLNMTICATDGDRIIAVRYSSERQSRSLFHTTSFKHLHELYPHNPRIAEAGDDAFMVVSEPLVDLRGAWEEVAESTAIVAQGADVQQRPFNPRHT, MGSDKIHHHHHHMDDFVQSKARKDIFRLKAYVPGKPIEEVKRELGLDSIIKLASNENPLGTSPLALAALQEGLNKIHLYPDANAYELKQELASFWQVPAEQIVVGNGSDELLLLLAQTFINPGDEVIHAEQTFSEYESTSTLMGAHSITIPLKEYKYDLKAILEAINTRTKIIYLCNPNNPTGTIVEQEEIELFMQQVPGEILVVFDEAYGEYVDNPAFGSGLQYLREGRNIVLLKTFSKIYGLAGLRIGYVITTPAIAAALDRVREPFNVNFAAQIAAQAALRDIDFVEKSRQLNLQGKDYLYQELARLGLDYVKTNTNFIFLDTGRDCQLVFRELLQRGVIIRTGDIFGYPTFIRLTIGTMEENRRFIKSLQEVLEVIPL, MGSDKIHHHHHHMDDGELEEVFFDEIETIAGKIYLGRIEKIVPGLEAAFVKIGKGRNAFLKLSEINEAYRKTVLKGQEVKEGQKILVQVKKDASGKKGPQVTPQIGIADRFVVIFPFKKVIGVSRKIEDASERRRLRTIAFSLRKKYGVGVIMRTAAEGVDEEEIIKNFERALEKWNQVLQKFRRSRKPKLLYEEDPVEQIIKEKVNSKIDKLIYNDRSLLETLQKYLQNLPKKPEIEYVEGDLFEKFSVYERLKKLLSRTVPLKSGGNIVIDRTEALTVIDVNSESYTDAENQEELALKTNMEAIEEIVRQLILRNIGGIVVIDFIKQKDPKSYEKLLSRFKEVAKRDGTRIEIFGFTNLGLLEITRKRTTRPLDTLLFTRCPVCSGTGKVLSQKILLKRIREDLKKLKDFEEVTLKVHPNMSGYFKREDIKKLQKEFKVKLNLDYGWHDPNSYEIKAKTKKGGK
